# Results reported in paper PMC2115640.
# Target: TX-100 cytoskeleton
# Assay: detergent extraction
binder,measurement,value
135-kD glycoprotein (gp135) (natural protein) HDGTIIAATSPTSGQPSTELPGGKGLITTAKTIQNTDLAITGEKVMSATVSKGPLPGSSNSVSMTLAPTQKNTVIAPDQDEKVSTNPTIATSDSKGIPDLNKSILPSATNSMKPDTPVTQTAGPGAQGNPGTTVSHMTSENTEQTTSQPPPQVKPSSITPALTSIITPTSPRQPSANSTTLKPPESSSESPDKSHTASSSLGTKVVPSSSLYGTSPTRTSSVTFWGGPQSSSGTPPVPAPTPRPAATSSSTPGISSVPGTTSLPSETESLESPSSESPSQPPKLRPTGPPSSGSSGPAASLPDEGPRSSSTQRAATAPRAPSVPSPTSAQGDDRIKCESPGRLTDKMLLLNLTRSGLCAGNNSDDKLITLLCRAAKATFNPAQDQCHIRLVPIQDTQAVAIKEITVQTNLLPRDVYELLKDKWDELKEVGVSNMKLGDQGPPEETEDRFSMPLIITIVCMASFLLLVAALYGCCHQRLSQRKDQQRLTEELQTVENGYHDNPTLEVMETSSEMQEKKVVNLNGELGDSWIVPLDNLAKDDLDEEEDTHL,"gp135 remaining (%) with the TX-100 cytoskeleton, 48-h cultures",66.2%
same,"gp135 remaining (%) with the TX-100 cytoskeleton, 72-h cultures",53.4%
